Km, kcat and kcat/Km data for two proteins are collected here from publication PMC12492669, “Malic enzyme-based system for transhydrogenation between nicotinamide cofactors” (Synthetic and Systems Biotechnology, 2025).

Substrate in data set [1]: NC(=O)C1=CN([C@@H]2O[C@H](COP(=O)(O)OP(=O)(O)OC[C@H]3O[C@@H](n4cnc5c(N)ncnc54)[C@H](O)[C@@H]3O)[C@@H](O)[C@H]2O)C=CC1
Description: purified protein, by the assay type. As to conditions: pH 7.5; 25.0 °C. Also on record: initial rates at varied cofactor, absorbance at 340 nm, Michaelis-Menten fit, pH 7.5, 25 °C. As to the method: (§1) For malic enzymes involved in oxidative decarboxylation, the solution contained 5 mM L-malate and 2 mM MgCl2. For malic enzymes involved in reductive carboxylation, the solution included 10 mM pyruvate, 30 mM NaHCO3 and 2 mM MgCl2. For DLDH∗ involved in pyruvate reduction, initial pyruvate concentration was 10 mM. All reactions were performed in 50 mM HEPES (pH 7.5) at 25 °C, with kinetic data fitted to the Michaelis-Menten equation via nonlinear regression using GraphPad Prism 10.0.2. All assays were performed in triplicate, and error bars show standard deviation. Enzyme activity assays of pure enzymes were conducted in a total volume of 0.1 mL. […] The enzyme activity was monitored by measuring the absorbance at 340 nm using a microplate spectrophotometer (Bio-Tek, VT, USA), with continuous absorbance tracking throughout the assay. One unit of pure enzyme activity was defined as the amount of enzyme required to catalyze the production of 1 μmol NADH, NCDH or NADPH per minute under the specified assay conditions. A molar absorption coefficient of 6220 M^−1 cm^−1 for NADH, NCDH or NADPH was used in the calculations.

Substrate in data set [2]: NC(=O)c1ccc[n+]([C@@H]2O[C@H](COP(=O)(O)OP(=O)(O)OC[C@H]3O[C@@H](n4cnc5c(N)ncnc54)[C@H](OP(=O)(O)O)[C@@H]3O)[C@@H](O)[C@H]2O)c1
Nature of the data set: purified protein, by the assay type. More on the design: initial rates at varied cofactor, absorbance at 340 nm, Michaelis-Menten fit, pH 7.5, 25 °C. As to conditions: pH 7.5; 25.0 °C. The protocol: as §1

Substrate in data set [3]: NC(=O)C1=CN([C@@H]2O[C@H](COP(=O)(O)OP(=O)(O)OC[C@H]3O[C@@H](n4cnc5c(N)ncnc54)[C@H](OP(=O)(O)O)[C@@H]3O)[C@@H](O)[C@H]2O)C=CC1
Nature of the data set: purified protein, by the assay type. Also on record: initial rates at varied cofactor, absorbance at 340 nm, Michaelis-Menten fit, pH 7.5, 25 °C. The conditions noted are these: pH 7.5; 25.0 °C. As to the method:
as §1

Substrate in data set [4]: NC(=O)C1=CN([C@@H]2O[C@H](COP(=O)(O)OP(=O)(O)OC[C@H]3O[C@@H](n4cnc5c(N)ncnc54)[C@H](O)[C@@H]3O)[C@@H](O)[C@H]2O)C=CC1
Description: initial rates of pyruvate reduction, Michaelis-Menten fit. It counts as biochemical, Lactobacillus helveticus. The conditions noted are these: 10 mM pyruvate, 50 mM HEPES pH 7.5, 25 °C, varied: cofactor.

Substrate in data set [5]: NC(=O)C1=CN([C@@H]2O[C@H](COP(=O)(O)OP(=O)(O)OC[C@H]3O[C@@H](n4ccc(N)nc4=O)[C@H](O)[C@@H]3O)[C@@H](O)[C@H]2O)C=CC1
Described as above. The data set is classed as biochemical, Lactobacillus helveticus. The conditions noted are these: 10 mM pyruvate, 50 mM HEPES pH 7.5, 25 °C, varied: cofactor.

Substrate in data set [6]: NC(=O)C1=CN([C@@H]2O[C@H](COP(=O)(O)OP(=O)(O)OC[C@H]3O[C@@H](n4cnc5c(N)ncnc54)[C@H](OP(=O)(O)O)[C@@H]3O)[C@@H](O)[C@H]2O)C=CC1
The description is as above. The data set is classed as biochemical, Lactobacillus helveticus. The conditions noted are these: 10 mM pyruvate, 50 mM HEPES pH 7.5, 25 °C, varied: cofactor.

B1: ME (Escherichia coli K-12) (protein)
chain: MEPKTKKQRSLYIPYAGPVLLEFPLLNKGSAFSMEERRNFNLLGLLPEVVETIEEQAERAWIQYQGFKTEIDKHIYLRNIQDTNETLFYRLVNNHLDEMMPVIYTPTVGAACERFSEIYRRSRGVFISYQNRHNMDDILQNVPNHNIKVIVVTDGERILGLGDQGIGGMGIPIGKLSLYTACGGISPAYTLPVVLDVGTNNQQLLNDPLYMGWRNPRITDDEYYEFVDEFIQAVKQRWPDVLLQFEDFAQKNAMPLLNRYRNEICSFNDDIQGTAAVTVGTLIAASRAAGGQLSEKKIVFLGAGSAGCGIAEMIISQTQREGLSEEAARQKVFMVDRFGLLTDKMPNLLPFQTKLVQKRENLSDWDTDSDVLSLLDVVRNVKPDILIGVSGQTGLFTEEIIREMHKHCPRPIVMPLSNPTSRVEATPQDIIAWTEGNALVATGSPFNPVVWKDKIYPIAQCNNAFIFPGIGLGVIASGASRITDEMLMSASETLAQYSPLVLNGEGMVLPELKDIQKVSRAIAFAVGKMAQQQGVAVKTSAEALQQAIDDNFWQAEYRDYRRTSI
notes: wild-type, recombinant
Regarding B1, in data set [1], the Km turned out to be 1.08 ± 0.35 mM, the catalytic constant (kcat) is 1.88 ± 0.35 s⁻¹ and the kcat/Km came out at 1740 M⁻¹ s⁻¹. In data set [2], the Km turned out to be 11.5 ± 1.2 mM, the catalytic constant (kcat) is 0.58 ± 0.05 s⁻¹ and the kcat/Km is 50 M⁻¹ s⁻¹. In addition, in data set [3], the Michaelis-Menten constant (Km) was 0.52 ± 0.12 mM, the kcat came out at 0.01 s⁻¹ and the kcat/Km turned out to be 20 M⁻¹ s⁻¹.

B2: DLDH∗ (D-lactate dehydrogenase, V152R/N213E mutant) (Lactobacillus helveticus; N213E/V152R) (protein)
chain: TKVFAYAIRKDEEPFLNEWKEAHKDIDVDYTDKLLTPETAKLAKGADGVVVYQQLDYTADTLQALADAGVTKMSLRNVGVDNIDMDKAKELGFQITNVPVYSPNAIAEHAAIQAARVLRQDKRMDEKMAKRDLRWAPTIGREVRDQVVGVRGTGHIGQVFMRIMEGFGAKVIAYDIFKNPELEKKGYYVDSLDDLYKQADVISLHVPDVPAEVHMINDKSIAEMKDGVVIVNCSRGRLVDTDAVIRGLDSGKIFGFVMDTYEDEVGVFNKDWEGKEFPDKRLADLIDRPNVLVTPHTAFYTTHAVRNMVVKAFNNNLKLINGEKPDSPVALNKNKF
notes: recombinant; only the V152R/N213E mutant tested; purification and tag not described in main text
On to B2, for which the Km stood at 4.84 mM in data set [4], 0.0711 mM in data set [5] and 2.11 mM in data set [6].
